Molecular target: the molecule itself
Test: native gel or EMSA; Blue Native PAGE (10% native gel) of whole-cell lysates of 293T cells solubilized with 2.5% Triton X-100; GFP fusions detected by anti-GFP immunoblot; markers aldolase ~160 kDa and BSA 66/132 kDa

B1: GFP-Tip^211-256 (domain or fragment)
chain: ANERNIVKDLKRLENKINVIICLVVVILAVLLLVTVLSILHIGMKS
notes: source: 293T, transiently expressing, detergent-solubilized lysate
In the case of B1, the “stoichiometry N” value is reported as about 4.
